Each sequence was assayed on Escherichia coli TOP10 (assay: shrunken log2 fold change of peptide-encoding DNA abundance (4.5 h post-induction vs induction); higher = less antimicrobial activity (less host growth inhibition)). Settings: time post-induction: 4.5 h; library: site-saturation at positions 5, 18, 19, 20.
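Note: peptides expressed intracellularly from a pBAD plasmid library in pooled LB shake-flask culture, induced with 0.3% L-arabinose, DNA abundance read by NGS, three biological replicates, DESeq2 with apeglm shrinkage.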

| Sequence | shrunken log2 fold change |
| --- | --- |
| RRIRQRPPRLPRPRPRPRCYPRP | 0.0331 |
| RRIRSRPPRLPRPRPRPRRSPRP | 0.181 |
| RRIRLRPPRLPRPRPRPEFSPRP | -0.013 |
| RRIRTRPPRLPRPRPRPGTAPRP | 0.166 |
| RRIRYRPPRLPRPRPRPPRQPRP | 0.0146 |
| RRIRQRPPRLPRPRPRPRCKPRP | 0.268 |
| RRIRQRPPRLPRPRPRPVLVPRP | 0.328 |
| RRIRPRPPRLPRPRPRPTSEPRP | 0.0181 |
| RRIRARPPRLPRPRPRPYIVPRP | -0.882 |
| RRIRHRPPRLPRPRPRPHDQPRP | -0.104 |
| RRIRDRPPRLPRPRPRPRKWPRP | -0.0062 |
| RRIRQRPPRLPRPRPRPALYPRP | 0.172 |
| RRIRKRPPRLPRPRPRPAGFPRP | 0.0388 |
| RRIRGRPPRLPRPRPRPEQRPRP | 0.926 |
| RRIRFRPPRLPRPRPRPWWVPRP | 0.00262 |
| RRIRCRPPRLPRPRPRPWWRPRP | 0.157 |
| RRIRNRPPRLPRPRPRPGAWPRP | 0.0927 |
| RRIRFRPPRLPRPRPRPTEDPRP | 0.0193 |
| RRIRIRPPRLPRPRPRPLAKPRP | -0.346 |
| RRIRQRPPRLPRPRPRPTLQPRP | 0.276 |
| RRIRTRPPRLPRPRPRPDKAPRP | -0.0271 |
| RRIRCRPPRLPRPRPRPVHLPRP | 0.0885 |
| RRIRMRPPRLPRPRPRPKNSPRP | 0.132 |
| RRIRKRPPRLPRPRPRPWKHPRP | -0.339 |
| RRIRKRPPRLPRPRPRPFYCPRP | -0.0322 |

| Sequence | shrunken log2 fold change |
| --- | --- |
| RRIRMRPPRLPRPRPRPAQRPRP | 0.987 |
| RRIRQRPPRLPRPRPRPMKRPRP | -0.111 |
| RRIRPRPPRLPRPRPRPPNKPRP | 0.139 |
| RRIRRRPPRLPRPRPRPKWRPRP | 0.587 |
| RRIRHRPPRLPRPRPRPFEKPRP | -0.0199 |
| RRIRPRPPRLPRPRPRPKFEPRP | 0.319 |
| RRIRHRPPRLPRPRPRPNDMPRP | -0.26 |
| RRIRHRPPRLPRPRPRPVMYPRP | -1.29 |
| RRIRPRPPRLPRPRPRPCIAPRP | 0.00774 |
| RRIRHRPPRLPRPRPRPALEPRP | -0.069 |
| RRIRPRPPRLPRPRPRPRKWPRP | 0.671 |
| RRIRDRPPRLPRPRPRPWLQPRP | 0.133 |
| RRIRKRPPRLPRPRPRPSQTPRP | 0.026 |
| RRIRLRPPRLPRPRPRPAVRPRP | 0.0913 |
| RRIRRRPPRLPRPRPRPNEYPRP | -0.123 |
| RRIRMRPPRLPRPRPRPSHMPRP | -0.146 |
| RRIRCRPPRLPRPRPRPISRPRP | -0.503 |
| RRIRSRPPRLPRPRPRPEKSPRP | -0.32 |
| RRIRDRPPRLPRPRPRPKKRPRP | 0.403 |
| RRIRCRPPRLPRPRPRPVVSPRP | -0.229 |
| RRIRLRPPRLPRPRPRPMNIPRP | -0.504 |
| RRIRNRPPRLPRPRPRPSTFPRP | -0.276 |
| RRIRNRPPRLPRPRPRPEIRPRP | 0.126 |
| RRIRLRPPRLPRPRPRPELRPRP | 0.214 |
| RRIRLRPPRLPRPRPRPECIPRP | -0.0423 |

| Sequence | shrunken log2 fold change |
| --- | --- |
| RRIRVRPPRLPRPRPRPDNKPRP | -0.581 |
| RRIRERPPRLPRPRPRPEVSPRP | 0.0769 |
| RRIRWRPPRLPRPRPRPLKSPRP | 0.183 |
| RRIRERPPRLPRPRPRPLEIPRP | 0.0282 |
| RRIRGRPPRLPRPRPRPAMNPRP | 0.542 |
| RRIRARPPRLPRPRPRPVPFPRP | 0.0816 |
| RRIRTRPPRLPRPRPRPHKQPRP | -0.148 |
| RRIRKRPPRLPRPRPRPPYAPRP | 0.424 |
| RRIRARPPRLPRPRPRPATWPRP | 0.37 |
| RRIRSRPPRLPRPRPRPHDGPRP | -0.01 |
| RRIRFRPPRLPRPRPRPFTCPRP | -0.271 |
| RRIRDRPPRLPRPRPRPNVEPRP | 0.119 |
| RRIRLRPPRLPRPRPRPQCTPRP | 0.0199 |
| RRIRMRPPRLPRPRPRPGERPRP | 0.772 |
| RRIRKRPPRLPRPRPRPRILPRP | 0.0416 |
| RRIRNRPPRLPRPRPRPRKHPRP | -0.194 |
| RRIRDRPPRLPRPRPRPCCGPRP | 1.13 |
| RRIRYRPPRLPRPRPRPGWKPRP | 0.00711 |
| RRIRSRPPRLPRPRPRPHVKPRP | -0.00963 |
| RRIRNRPPRLPRPRPRPWAEPRP | 0.125 |
| RRIRSRPPRLPRPRPRPVANPRP | 0.152 |
| RRIRCRPPRLPRPRPRPFIEPRP | 0.184 |
| RRIRGRPPRLPRPRPRPMSEPRP | 0.286 |
| RRIRRRPPRLPRPRPRPQVWPRP | 0.409 |
| RRIRGRPPRLPRPRPRPSKEPRP | 0.289 |
